According to patent US20090162390A1:

Legend:
Experiment in all cases: cell-based or functional assay
[1] = target: HIV-1 env glycoprotein (YU2) (HIV-1 (YU2)) (UniProt P35961)
[2] = target: HIV-2 strain 7312A envelope polypeptide (wild-type) (HIV-2 (isolate 7312A))
[3] = target: HIV-2 7312A envelope with site-directed mutations 660 (K to A), 662 (N to D), 663 (S to K) and 665 (D to A) of SEQ ID NO:2 (HIV-2 (isolate 7312A))
[4] = target: HIV-2 7312A envelope with site-directed substitutions at 675 (L to I) and 676 (A to T) (HXB2 numbering) (HIV-2 (isolate 7312A))
[5] = target: HIV-2 ST envelope polypeptide (wild-type) (HIV-2 (strain ST)) (UniProt P20872)
[6] = target: HIV-2 UC1 envelope polypeptide (wild-type) (HIV-2 (strain UC1)) (UniProt Q76638)

b12 monoclonal antibody
neutralization IC50 (JC53bl-13 HIV entry assay) [1]: 3 µg/mL | neutralization IC50 (JC53bl-13 HIV entry assay) [2]: > 50 µg/mL

2F5 monoclonal antibody
neutralization IC50 (JC53bl-13 HIV entry assay) [1]: 25 µg/mL | neutralization IC50 (JC53bl-13 HIV entry assay) [3]: < 0.1 µg/mL | neutralization IC50 (JC53bl-13 HIV entry assay) [2]: > 50 µg/mL

4E10 monoclonal antibody
neutralization IC50 (JC53bl-13 HIV entry assay) [1]: 25 µg/mL | neutralization IC50 (JC53bl-13 HIV entry assay) [4]: 0.8 µg/mL | neutralization IC50 (JC53bl-13 HIV entry assay) [5]: 0.1 µg/mL | neutralization IC50 (JC53bl-13 HIV entry assay) [6]: 1.2 µg/mL | neutralization IC50 (JC53bl-13 HIV entry assay) [2]: > 50 µg/mL
